One block for each binder: values may come before it.
Key:
[1] = molecular target: T1, cynomolgus monkey SIRPα, extracellular domain (cynomolgus monkey, UniProt A0A2K5VYQ9 31-372); experiment: SPR (BIACORE), antibody captured on chip, monomeric SIRPα as analyte, 1:1 model
T1 construct: extracellular domain; Monomeric protein in SPR; also called Cyno SIRPα; monomeric cynomolgus monkey SIRPα
Method: (§1) The affinities of these SIRPα antibodies were determined using surface plasmon resonance. The SIRPα antibodies were flowed onto a chip and captured by an anti-human IgG covalently coupled to the surface of the chip. A three-point titration of the extracellular binding domain of hSIRPα was performed per the manufacturer’s recommended protocols.

[2] = molecular target: T2, human SIRPβ1-His monomer protein (human, UniProt O00241 30-371); experiment: BLI (ForteBio Octet), antibody on AMC biosensor, SIRP-His monomer 100/33.3/11.1 nM, 1:1 model, averaged KD
T2 construct: also called SIRP-His; monomeric human SIRPβ1; not shown: His tag

[3] = molecular target: T3, human SIRPα V1-His monomer protein (human, UniProt P78324 31-373); experiment: as above
T3 construct: SIRP-His monomer used as analyte in BLI (Octet); also called SIRP-His; monomeric human SIRPα; not shown: His tag

[4] = molecular target: T4, human SIRPα V1, extracellular domain (human, UniProt P78324 31-373); experiment: SPR (BIACORE), antibody captured on chip, monomeric SIRPα ECD as analyte, 1:1 model
T4 construct: also called hSIRPα V1; monomeric human SIRPα
Method: as §1

[5] = molecular target: T4, human SIRPα V1, extracellular domain; experiment: SPR (BIACORE), antibody captured by anti-human IgG, monomeric SIRPα ECD as analyte, 1:1 model
Method: as §1

[6] = molecular target: T1, cynomolgus monkey SIRPα, extracellular …; experiment: SPR (BIACORE), antibody captured by anti-human IgG, monomeric SIRPα as analyte, 1:1 model
Method: as §1

[7] = molecular target: T5, human SIRPα V2, extracellular domain (human, UniProt P78324 31-373); experiment: SPR (BIACORE), antibody captured by anti-human IgG, monomeric SIRPα ECD as analyte, 1:1 model
T5 construct: also called hSIRPα V2
Method: as §1

[8] = molecular target: T1, cynomolgus monkey SIRPα, extracellular …; experiment: SPR (BIACORE), antibody captured, monomeric SIRPα as analyte

T2 sequence (O00241 30-371 limits assumed): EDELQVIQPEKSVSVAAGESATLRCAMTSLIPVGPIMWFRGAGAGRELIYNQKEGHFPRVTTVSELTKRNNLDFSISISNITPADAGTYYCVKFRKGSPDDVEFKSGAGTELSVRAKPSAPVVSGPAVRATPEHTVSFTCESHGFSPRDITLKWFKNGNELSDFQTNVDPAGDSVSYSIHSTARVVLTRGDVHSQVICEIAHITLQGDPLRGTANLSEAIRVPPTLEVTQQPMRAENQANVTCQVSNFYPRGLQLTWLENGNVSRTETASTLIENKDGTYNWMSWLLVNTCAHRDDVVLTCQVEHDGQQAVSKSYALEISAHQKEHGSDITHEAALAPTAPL

B1: Antibody 6 (antibody, rat IgG2b, V domains shown)
VH: EVQLLESGGGLVQPGGSLRLSCAASGFTLSSYAMSWVRQAPGKGLEWVSISSGSGANTYNADSLKGRFTISRDNSKNTLFLQMNSLRAEDTAVYYCARLRFFDWFDYWGQGALVTVSS
VL: QAVVTQESALTTSPGETVTLTCRSSTGAVTTSNYANWVQEKPDHLFTGLIGGTNNRTPGVPARFSGSLIGDKAALTITGAQTEDEAIYFCALWYSNHWVFGGGTKLTVL
notes: Human variable region with rat IgG2b Fc
Kd [1]: 56.1 nM
Kd [2]: 0.456 nM
Kd [3]: 1.21 nM
Kd [4]: 4.1 nM

B2: Antibody 27 (antibody, V domains shown)
VH: B1 VH
VL: B1 VL
Kd [5]: 2 nM
Kd [6]: 30.6 nM

B3: Antibody 22 (antibody, V domains shown)
VH: B1 VH
VL: B1 VL
notes: Same variable domains as Antibody 6 with human IgG1 Fc
Kd [7]: 11.5 nM
Kd [5]: 2.59 nM
Kd [6]: 35.5 nM

B4: Antibody 5 (antibody, rat IgG2b, V domains shown)
VH: QVQLVESGGGVVQPGRSLRLSCAASGFTFSNYGMHWVRQAPGKGPEWVAVIWYDGSYKYYGDSVKGRFTISRDNSKNTLYLQMNSLRAEDTAVYYCVRESVGYSSGWSFDYWGQGILVTVSS
VL: DIQMTQSPSTLSASVGDRVTITCRASQSISSWLAWYQQKPGKVPKLLIYKASSLKTGVPSRFSGNGSGTEFTLTISSLQPDDFATYYCQQYNSYSWTFGQGTKVEIK
notes: as for B1
Kd [3]: 17.3 nM

B5: Antibody 16 (antibody, mouse IgG2a, V domains shown)
VH: QVQLQQSGAELAKPGASVKMSCKASGYTFTSYWMHWVKQRPGQGLEWIGYIDPSTGYTFHNQKFKDKATLTADKSSTTAYMQLRSLTSEDSAVYYCARRDYGSSFYAMDYWGHGTSITVSS
VL: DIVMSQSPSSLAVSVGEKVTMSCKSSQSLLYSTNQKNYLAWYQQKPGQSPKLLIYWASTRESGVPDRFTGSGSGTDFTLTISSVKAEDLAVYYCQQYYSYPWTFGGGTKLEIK
notes: Mouse IgG2a Fc
Kd [2]: 83.9 nM
Kd [3]: 1.21 nM

B6: Antibody 19 (antibody, mouse IgG1, V domains shown)
VH: QVQLQQSGAELVRPGASVTLSCKASGYTFTDYEMHWVKQTPVHGLEWIGAIDPETGGTAYNQKFKGKATLTADKSSSTAYMELRSLTSEDSAVYYCTGITRFAYWGQGTLVTVSA
VL: SIVMTQTPKFLLVSAGDRVTITCKASQSVSNDVAWYQQKPGQSPKLLIYYASNRYTGVPDRFTGSGYGTDFTFTISTVQAEDLAVYFCQQDYSSPWTFGGGTKLEIK
notes: Mouse IgG1 Fc
Kd [2]: 75.9 nM
Kd [3]: 3.79 nM

Continued by falling Kd [3], values first:

Kd [3]: 206 nM
B8: Antibody 17 (antibody, mouse IgG2a, V domains shown)
VH: EVQVVESGGGLVKPGGSLKISCAASGFAFSSYDMSWVRQTPEKRLEWVAYISSGGGSIYYAETVKGRFTISRDNAKNTLYLQMSSLKSEDTAMYYCVRHGYHEYFDVWGAGTTVTVSS
VL: DVLMTQTPLSLPVSLGDQASISCRSSQSIVHSNGNTYLEWYLQKPGQSPKLLIYKVSNRFSGVPDRFSGSGSGTDFTLKISRVEAEDLGVYFCFQGSHFPYTFGGGTKLEIK
notes: Mouse IgG2a Fc

binding result [8]: no binding
Kd [2]: 3620 nM
Kd [3]: 11 nM
Kd [4]: 89.5 nM
B7: Antibody 2 (antibody, V domains shown)
VH: QVQLVQSGAEVKKPGASVKVSCKASGYTFTGYYIFWMRQAPGQGLEWMGWINPNSGGTDYAQKFQGRVTMTMDTSISTAYMELSRLRSDDTAVYYCAREDCTSISCSFDYWGQGTLVTVSS
VL: not shown
notes: as for B1

From US20230174648A1 (published 2023)
